# Measurements as given in the supplement of paper PMC11246515.
# ± gives the standard deviation of the averaged measurements.
# Experiment: total protein half-life in vivo (active degradation + dilution); higher = more stable protein
# [1] = E. coli NCM3722 delta-clpP delta-lon delta-hslV, growth: N-lim chemostat, doubling time 6 h
# [2] = E. coli NCM3722 delta-clpP, growth: N-lim chemostat, doubling time 6 h
# [3] = E. coli NCM3722 delta-hslV, growth: N-lim chemostat, doubling time 6 h
# [4] = E. coli NCM3722 delta-lon, growth: N-lim chemostat, doubling time 6 h
# [5] = E. coli NCM3722 delta-smpB, growth: N-lim chemostat, doubling time 6 h
# [6] = wild type E. coli NCM3722, growth: C-lim chemostat, doubling time 3 h
# [7] = wild type E. coli NCM3722, growth: C-lim chemostat, doubling time 6 h
# [8] = wild type E. coli NCM3722, growth: C-lim chemostat, doubling time 12 h
# [9] = wild type E. coli NCM3722, growth: N-lim chemostat, doubling time 6 h
# [10] = wild type E. coli NCM3722, growth: N-lim chemostat, doubling time 12 h
# [11] = wild type E. coli NCM3722, growth: P-lim chemostat, doubling time 6 h
# [12] = wild type E. coli NCM3722, growth: P-lim chemostat, doubling time 12 h
Sequence,total protein half-life in vivo [1],total protein half-life in vivo [2],total protein half-life in vivo [3],total protein half-life in vivo [4],total protein half-life in vivo [5],total protein half-life in vivo [6],total protein half-life in vivo [7],total protein half-life in vivo [8],total protein half-life in vivo [9],total protein half-life in vivo [10],total protein half-life in vivo [11],total protein half-life in vivo [12]
MSEQLVTPENVTTKDGKINLLDLNRQQMREFFKDLGEKPFRADQVMKWMYHYCCDNFDEMTDINKVLRGKLKEVAEIRAPEVVEEQRSSDGTIKWAIAVGDQRVETVYIPEDDRATLCVSSQVGCALECKFCSTAQQGFNRNLRVSEIIGQVWRAAKIVGAAKVTGQRPITNVVMMGMGEPLLNLNNVVPAMEIMLDDFGFGLSKRRVTLSTSGVVPALDKLGDMIDVALAISLHAPNDEIRDEIVPINKKYNIETFLAAVRRYLEKSNANQGRVTIEYVMLDHVNDGTEHAHQLAELLKDTPCKINLIPWNPFPGAPYGRSSNSRIDRFSKVLMSYGFTTIVRKTRGDDIDAACGQLAGDVIDRTKRTLRKRMQGEAIDIKAV,4.37 ± 0.19 h,2.76 ± 0.77 h,1.13 ± 0.07 h,1.57 ± 0.14 h,1.15 ± 0.025 h,1.35 ± 0.022 h,1.89 ± 0.12 h,2.442 ± 0.024 h,1.31 ± 0.027 h,1.88 ± 0.24 h,1.78 ± 0.32 h,2.3 ± 0.26 h
MSESAFKDCFLTDVSADTRLFHFLARDYIVQEGQQPSWLFYLTRGRARLYATLANGRVSLIDFFAAPCFIGEIELIDKDHEPRAVQAIEECWCLALPMKHYRPLLLNDTLFLRKLCVTLSHKNYRNIVSLTQNQSFPLVNRLAAFILLSQEGDLYHEKHTQAAEYLGVSYRHLLYVLAQFIHDGLLIKSKKGYLIKNRKQLSGLALEMDPENKFSGMMQ [P0A9E9],–,–,–,–,–,1.56 h,–,2.53 h,–,–,–,–
MSESLHLTRNGSILEITLDRPKANAIDAKTSFEMGEVFLNFRDDPQLRVAIITGAGEKFFSAGWDLKAAAEGEAPDADFGPGGFAGLTEIFNLDKPVIAAVNGYAFGGGFELALAADFIVCADNASFALPEAKLGIVPDSGGVLRLPKILPPAIVNEMVMTGRRMGAEEALRWGIVNRVVSQAELMDNARELAQQLVNSAPLAIAALKEIYRTTSEMPVEEAYRYIRSGVLKHYPSVLHSEDAIEGPLAFAEKRDPVWKGR,–,–,–,–,3.5 h,2.96 ± 0.038 h,4.96 ± 0.18 h,8.84 ± 0.32 h,–,5.66 h,5.25 ± 0.44 h,10.5 ± 0.97 h
MSESLSWMQTGDTLALSGELDQDVLLPLWEMREEAVKGITCIDLSRVSRVDTGGLALLLHLIDLAKKQGNNVTLQGVNDKVYTLAKLYNLPADVLPR,6.59 ± 0.72 h,–,6.39 ± 0.34 h,5.57 ± 0.6 h,5.75 ± 0.51 h,2.98 ± 0.28 h,5.387 ± 0.018 h,10.9 ± 4.8 h,4.86 ± 0.53 h,10.2 h,5.332 ± 0.016 h,11.9 ± 0.66 h
MSESVQSNSAVLVHFTLKLDDGTTAESTRNNGKPALFRLGDASLSEGLEQHLLGLKVGDKTTFSLEPDAAFGVPSPDLIQYFSRREFMDAGEPEIGAIMLFTAMDGSEMPGVIREINGDSITVDFNHPLAGQTVHFDIEVLEIDPALEA [P0AEM0],4.8 h,4.79 h,–,5.05 h,3.85 ± 0.14 h,2.84 h,4.78 ± 0.094 h,9.21 ± 1.6 h,4.44 h,5.91 h,5.49 ± 0.13 h,11.6 h
MSETASWQPSASIPNLLKRAAIMAEIRRFFADRGVLEVETPCMSQATVTDIHLVPFETRFVGPGHSQGMNLWLMTSPEYHMKRLLVAGCGPVFQLCRSFRNEEMGRYHNPEFTMLEWYRPHYDMYRLMNEVDDLLQQVLDCPAAESLSYQQAFLRYLEIDPLSADKTQLREVAAKLDLSNVADTEEDRDTLLQLLFTFGVEPNIGKEKPTFVYHFPASQASLAQISTEDHRVAERFEVYYKGIELANGFHELTDAREQQQRFEQDNRKRAARGLPQHPIDQNLIEALKVGMPDCSGVALGVDRLVMLALGAETLAEVIAFSVDRA [P0A8N7],5.63 h,4.37 h,3.95 h,3.35 h,3.93 ± 0.61 h,2.71 ± 0.4 h,6.14 h,9.92 h,3.34 h,–,6.35 ± 0.51 h,14.41 ± 0.11 h
